The values below are quoted from earlier work in US12653898B2, “Polyoxyethylene derivatives and conjugates thereof” (NATIONAL UNIVERSITY CORPORATION HOKKAIDO UNIVERSITY, priority 2023, dated 2026).

Read-outs that look alike come from different tables or passages of the source.

For the series the following is noted: under physiological conditions.

B1: conjugate of bovine pancreas-derived ribonuclease A (RNase A) and compound 7: conjugate of RNase A and compound 7 (1-benzyl-1H-1,2,3-triazole-4-carbaldehyde) of WO 2020/175680 (conjugate, UniProt P61823 27-150, looked up)
Ribonuclease pancreatic: KETAAAKFERQHMDSSTSAASSSNYCNQMMKSRNLTKDRCKPVNTFVHESLADVQAVCSQKNVACKNGQTNCYQSYSTMSITDCRETGSSKYPNCAYKTTQANKHIIVACEGNPYVPVHFDASV
modifications: triazole carbaldehyde compound 7 conjugate
For the molecule B1, the degradation half-life reads like this: (FIG. 54 of WO 2020/175680) 12 to 18 h; (comparison value from WO 2020/175680) 12 to 18 h.
